From patent US20080267980A1

Target: C3 ligand for CR2 deposited on CHO cells (human) (UniProt P01024)
Assay: cell-based or functional assay

B1: CR2-CD59 (protein)
chain: ISCGSPPPILNGRISYYSTPIAVGTVIRYSCSGTFRLIGEKSLLCITKDKVDGTWDKPAPKCEYFNKYSSCPEPIVPGGYKIRGSTPYRHGDSVTFACKTNFSMNGNKSVWCQANNMWGPTRLPTCVSVFPLECPALPMIHNGHHTSENVGSIAPGLSVTYSCESGYLLVGEKIINCLSSGKWSAVPPTCEEARCKSLGRFPNGKVKEPPILRVGVTANFFCDEGYRLQGPPSSRCVIAGQGVAWTKMPVCSGGGGSLQCYNCPNPTADCKTAVNCSSDFDACLITKAGLQVYNKCWKFEHCNFNDVTTRLRENELTYYCCKKDLCNFNEQLEN
For B1, the 50% inhibition of CHO cell lysis was 102 nM.

B2: CR2-DAF (protein)
chain: ISCGSPPPILNGRISYYSTPIAVGTVIRYSCSGTFRLIGEKSLLCITKDKVDGTWDKPAPKCEYFNKYSSCPEPIVPGGYKIRGSTPYRHGDSVTFACKTNFSMNGNKSVWCQANNMWGPTRLPTCVSVFPLECPALPMIHNGHHTSENVGSIAPGLSVTYSCESGYLLVGEKIINCLSSGKWSAVPPTCEEARCKSLGRFPNGKVKEPPILRVGVTANFFCDEGYRLQGPPSSRCVIAGQGVAWTKMPVCGGGSGGGGSDCGLPPDVPNAQPALEGRTSFPEDTVITYKCEESFVKIPGEKDSVICLKGSQWSDIEEFCNRSCEVPTRLNSASLKQPYITQNYFPVGTVVEYECRPGYRREPSLSPKLTCLQNLKWSTAVEFCKKKSCPNPGEIRNGQIDVPGGILFGATISFSCNTGYKLFGSTSSFCLISGSSVQWSDPLPECREIYCPAPPQIDNGIIQGERDHYGYRQSVTYACNKGFTMIGEHSIYCTV
For B2, the 50% inhibition of CHO cell lysis was 18 nM.
